From patent US20230235013A1 (MABSOLVE, published 2023)

T1: mouse FcγRI (mouse, UniProt P26151 25-297)
T1 construct: bought; captured on anti-histidine chip
T1 sequence (looked up): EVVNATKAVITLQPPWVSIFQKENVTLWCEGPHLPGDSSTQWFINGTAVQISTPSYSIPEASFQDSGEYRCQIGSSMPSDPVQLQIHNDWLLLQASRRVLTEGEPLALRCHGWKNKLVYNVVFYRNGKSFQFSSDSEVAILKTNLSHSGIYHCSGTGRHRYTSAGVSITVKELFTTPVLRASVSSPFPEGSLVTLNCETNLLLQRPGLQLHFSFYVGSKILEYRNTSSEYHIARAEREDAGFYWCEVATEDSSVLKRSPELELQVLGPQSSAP

T2: rat FcγRI (rat, UniProt A0A0B4J2J0 16-285)
T2 construct: bought; captured on anti-histidine chip
T2 sequence: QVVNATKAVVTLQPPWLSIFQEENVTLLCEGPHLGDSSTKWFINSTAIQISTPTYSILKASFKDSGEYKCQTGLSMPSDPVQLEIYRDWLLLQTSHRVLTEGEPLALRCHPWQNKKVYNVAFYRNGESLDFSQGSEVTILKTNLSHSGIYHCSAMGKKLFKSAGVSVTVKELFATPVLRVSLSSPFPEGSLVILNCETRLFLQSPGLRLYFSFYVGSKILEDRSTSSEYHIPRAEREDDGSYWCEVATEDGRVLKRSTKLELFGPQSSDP

T3: human FcγRIIA (R131) (human, UniProt P12318 34-218, limits assumed)
T3 construct: bought; R131 allele
T3 sequence (looked up): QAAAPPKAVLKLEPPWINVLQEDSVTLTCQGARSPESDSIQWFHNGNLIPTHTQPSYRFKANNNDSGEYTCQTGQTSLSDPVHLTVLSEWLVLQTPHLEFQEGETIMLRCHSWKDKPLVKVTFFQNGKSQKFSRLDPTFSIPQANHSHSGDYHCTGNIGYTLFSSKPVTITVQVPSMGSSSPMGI

T4: human FcγRIIB (human, UniProt P31994 43-217)
T4 construct: bought
T4 sequence (looked up): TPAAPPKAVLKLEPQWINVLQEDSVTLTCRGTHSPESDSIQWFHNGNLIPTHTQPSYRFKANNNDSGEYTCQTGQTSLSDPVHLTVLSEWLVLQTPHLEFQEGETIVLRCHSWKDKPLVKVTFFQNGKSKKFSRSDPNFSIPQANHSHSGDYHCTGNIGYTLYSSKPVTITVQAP

B1: anti-CD52 (alemtuzumab variable regions) human IgG1 wild type reference (antibody)
heavy: not shown
light: not shown
notes: also called 4-1; wild-type CD52 antibody
B2: anti-CD20 (rituximab) human IgG1 wild-type reference (antibody)
heavy: not shown
light: QIVLSQSPAILSASPGEKVTMTCRASSSVSYIHWFQQKPGSSPKPWIYATSNLASGVPVRFSGSGSGTSYSLTISRVEAEDAATYYCQQWTSNPPTFGGGTKLEIKRTVAAPSVFIFPPSDEQLKSGTASVVCLLNNFYPREAKVQWKVDNALQSGNSQESVTEQDSKDSTYSLSSTLTLSKADYEKHKVYACEVTHQGLSSPVTKSFNRGEC
notes: 2-1 and 10.0 are separate lots from HEK293; also called 2-1; 10.0
B3: anti-CD20 human IgG1 L234A/L235A/P329G (LALAPG reference) (antibody)
heavy: not shown
light: B2 light
notes: also called 2-66
B4: anti-CD20 human IgG1 L234A/L235A (LALA) (antibody)
heavy: not shown
light: B2 light
notes: 2-65 and 10.16 are separate lots; also called 2-65; 10.16
B5: anti-CD20 human IgG1 L234S/L235T/G236R (antibody)
heavy: QVQLQQPGAELVKPGASVKMSCKASGYTFTSYNMHWVKQTPGRGLEWIGAIYPGNGDTSYNQKFKGKATLTADKSSSTAYMQLSSLTSEDSAVYYCARSTYYGGDWYFNVWGAGTTVTVSSASTKGPSVFPLAPSSKSTSGGTAALGCLVKDYFPEPVTVSWNSGALTSGVHTFPAVLQSSGLYSLSSVVTVPSSSLGTQTYICNVNHKPSNTKVDKKVEPKSCDKTHTCPPCPAPESTRGPSVFLFPPKPKDTLMISRTPEVTCVVVDVSHEDPEVKFNWYVDGVEVHNAKTKPREEQYNSTYRVVSVLTVLHQDWLNGKEYKCKVSNKALPAPIEKTISKAKGQPREPQVYTLPPSRDELTKNQVSLTCLVKGFYPSDIAVEWESNGQPENNYKTTPPVLDSDGSFFLYSKLTVDKSRWQQGNVFSCSVMHEALHNHYTQKSLSLSPGK
light: B2 light
notes: also called 2-52; 1-150

Key:
[1] = target: T5, CD3D/CD3E heterodimer (Sino Biologicals Cat. No. CT038-H2508H) (human, UniProt P04234 22-105; P07766 23-126); test: ELISA, antigen coated
T5 construct: bought; also called CD3 antigen; human CD3

[2] = target: T5, CD3D/CD3E heterodimer (Sino Biologicals …); test: ELISA, antigen coated, antibody 5 µg/mL
[3] = target: T6, Sheep Fc-CD52 fusion protein (Absolute Antibody Cat. No. PR00205) (human, UniProt P31358 25-36); test: ELISA, antigen coated, antibody 5 µg/mL
T6 construct: bought; also called CD52 antigen; human CD52; not shown: sheep Fc

human FcγRIIIA (F158) [4] = target: T7, human FcγRIIIA (F158) (human, UniProt P08637 17-208); test: SPR, FcγRIIIA captured
T7 construct: bought; F158 allele
T7 sequence (P08637 17-208 limits assumed): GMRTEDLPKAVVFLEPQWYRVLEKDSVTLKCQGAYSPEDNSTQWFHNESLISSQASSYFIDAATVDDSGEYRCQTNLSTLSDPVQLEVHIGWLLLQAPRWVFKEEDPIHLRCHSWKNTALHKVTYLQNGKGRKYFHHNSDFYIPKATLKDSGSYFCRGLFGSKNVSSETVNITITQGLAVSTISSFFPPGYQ

cynomolgus monkey FcRn = target: T8, cynomolgus monkey FcRn (cynomolgus monkey, UniProt Q8SPV9 24-297; Q8SPW0 21-119); test: SPR pH 6.0, FcRn captured
T8 construct: bought; also called cynomolgus FcRn

[5] = target: T9, Histidine-tagged recombinant human FcγRI (CD64) (human, UniProt P12314 16-288, limits assumed); test: SPR, His-FcγRI captured; mean;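 also: biacore T200 SPR at 25 °C, anti-His surface capturing FcγRI, Fc-variant antibodies injected at 100 µg/mL for 1 min, signal near injection end minus third buffer blank, three repeats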
T9 construct: bought

[6] = target: T9, Histidine-tagged recombinant human …; test: SPR, His-FcγRI captured; Expt 2;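 also: biacore T200 SPR at 25 °C, Fc-variant antibodies at 100 µg/mL flowed 1 min over anti-His-captured receptor, signal read near injection end minus third buffer blank; antibody analyte injected at 100 µg/mL for 1 min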
[7] = target: T9, Histidine-tagged recombinant human …; test: SPR, His-FcγRI captured; Expt 3;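 also: biacore T200 SPR at 25 °C, Fc-variant antibodies at 100 µg/mL flowed 1 min over anti-His-captured FcγRI, signal taken just before injection end minus a buffer blank cycle; antibody analyte injected at 100 µg/mL for 1 min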
human FcRn [8] = target: T10, human FcRn (human, UniProt P55899 24-297; P61769 21-119); test: SPR pH 6.0, FcRn captured; Expt 1
T10 construct: bought
T10 sequence (P55899 24-297 limits assumed, chain 1 of 2): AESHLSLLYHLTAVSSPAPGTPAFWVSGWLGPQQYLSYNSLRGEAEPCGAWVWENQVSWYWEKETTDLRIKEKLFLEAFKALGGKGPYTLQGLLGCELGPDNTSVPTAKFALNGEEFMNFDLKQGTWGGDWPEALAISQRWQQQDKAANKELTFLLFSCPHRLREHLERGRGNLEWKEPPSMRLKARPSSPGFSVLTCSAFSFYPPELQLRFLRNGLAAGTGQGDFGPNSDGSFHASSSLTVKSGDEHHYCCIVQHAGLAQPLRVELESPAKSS
T10 sequence (P61769 21-119 limits assumed, chain 2 of 2): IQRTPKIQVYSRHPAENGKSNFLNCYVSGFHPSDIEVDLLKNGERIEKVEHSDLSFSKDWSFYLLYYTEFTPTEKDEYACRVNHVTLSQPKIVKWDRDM

human FcRn [9] = target: T10, human FcRn; test: SPR pH 6.0, FcRn captured; Expt 2
[10] = target: T9, Histidine-tagged recombinant human …; test: SPR, His-FcγRI captured; Expt 1 Rep 1;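 also: antibody analyte injected at 100 µg/mL for 1 min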
[11] = target: T9, Histidine-tagged recombinant human …; test: SPR, His-FcγRI captured; Expt 1 Rep 2;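 also: antibody analyte injected at 100 µg/mL for 1 min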
[12] = target: T9, Histidine-tagged recombinant human …; test: SPR, His-FcγRI captured; Expt 2 Rep 1;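 also: antibody analyte injected at 100 µg/mL for 1 min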
[13] = target: T9, Histidine-tagged recombinant human …; test: SPR, receptor captured on anti-His chip
mouse FcγRI = target: T1, mouse FcγRI; test: SPR, receptor captured on anti-His chip
rat FcγRI = target: T2, rat FcγRI; test: SPR, receptor captured on anti-His chip
rabbit FcγRI = target: T11, rabbit FcγRI (rabbit); test: SPR, receptor captured on anti-His chip
T11 construct: bought; captured on anti-histidine chip

human FcγRIIA (R131) = target: T3, human FcγRIIA (R131); test: SPR, receptor captured on anti-His chip
human FcγRIIB = target: T4, human FcγRIIB; test: SPR, receptor captured on anti-His chip
human FcγRIIIA (F158) [14] = target: T7, human FcγRIIIA (F158); test: SPR, receptor captured on anti-His chip
[15] = target: T12, human FcγRIIIB (NA2 allotype) (human, UniProt O75015 17-200, limits assumed); test: SPR, receptor captured on anti-His chip
T12 construct: bought; NA2 allotype

[16] = target: T9, Histidine-tagged recombinant human …; test: SPR, His-FcγRI captured; CHO-produced; Expt 1 Rep 1;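 also: antibody analyte injected at 100 µg/mL for 1 min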
[17] = target: T9, Histidine-tagged recombinant human …; test: SPR, His-FcγRI captured; CHO-produced; Expt 1 Rep 2;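 also: antibody analyte injected at 100 µg/mL for 1 min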
[18] = target: T9, Histidine-tagged recombinant human …; test: SPR, His-FcγRI captured; CHO-produced; Expt 2 Rep 1;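 also: antibody analyte injected at 100 µg/mL for 1 min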
[19] = target: T9, Histidine-tagged recombinant human …; test: SPR, His-FcγRI captured; CHO-produced; Expt 2 Rep 2;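 also: antibody analyte injected at 100 µg/mL for 1 min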
[20] = target: T9, Histidine-tagged recombinant human …; test: SPR, His-FcγRI captured; Expt 2 Rep 2;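 also: antibody analyte injected at 100 µg/mL for 1 min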
[21] = target: T9, Histidine-tagged recombinant human …; test: SPR, His-FcγRI captured; Expt 1;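 also: SPR at 25 °C on anti-His antibody chip capturing FcγRI, Fc-variant antibodies injected at 100 µg/mL for 1 min, signal near end of injection minus buffer blank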

Row | Binder | Corrected response (RU) (cynomolgus monkey FcRn) | Corrected response (RU), Mean [5] | Corrected response (RU) [6] | Corrected response (RU) (human FcRn [8]) | Corrected response (RU) (human FcRn [9]) | Corrected response (RU) [10] | Corrected response (RU) [11] | Corrected response (RU) [12] | Corrected response (RU) [13] | Corrected response (RU) (mouse FcγRI) | Corrected response (RU) (rat FcγRI) | Corrected response (RU) (rabbit FcγRI) | Corrected response (RU) (human FcγRIIA (R131)) | Corrected response (RU) (human FcγRIIB) | Corrected response (RU) (human FcγRIIIA (F158) [14]) | Corrected response (RU) [15] | Corrected response (RU) [16] | Corrected response (RU) [17] | Corrected response (RU) [18] | Corrected response (RU) [19] | further results
1 | B1 | – | – | – | – | – | – | – | – | – | – | – | – | – | – | – | – | – | – | – | – | binding result [1]: no binding (tested: 5 µg/mL); Mean Absorbance [2]: 0.009 absorbance; Mean Absorbance [3]: 1.53 absorbance
2 | B2 | 1440 RU | 2590 RU | 2570 RU | 647 RU | 650 RU | 2370 RU | 2380 RU | 1460 RU | 3020 RU | 1790 RU | 2220 RU | 2770 RU | 345 RU | 175 RU | 889 RU | 501 RU | 2120 RU | 2180 RU | 1350 RU | 1390 RU | Corrected response (RU) (human FcγRIIIA (F158) [4]): 588 RU; Corrected response (RU) [7]: 2600 RU
3 | B3 | 1270 RU | – | – | 543 RU | 557 RU | 53.4 RU | 40.7 RU | 62.4 RU | 72.9 RU | -0.2 RU | 0.5 RU | 5.6 RU | 0.9 RU | -0.6 RU | -0.4 RU | -1.6 RU | – | – | – | – | Corrected response (RU) [20]: 49.5 RU
4 | B4 | 1390 RU | – | – | 612 RU | 614 RU | 752 RU | 654 RU | 524 RU | 832 RU | 6.3 RU | 2.3 RU | 141 RU | 21.8 RU | 13.2 RU | 57.4 RU | 16 RU | 597 RU | 577 RU | 452 RU | 440 RU | Corrected response (RU) [20]: 478 RU
5 | B5 | – | 0.6 RU | 0.3 RU | – | – | -23.8 RU | -12.1 RU | -1 RU | – | – | – | – | – | – | – | – | -23.4 RU | -20.7 RU | -9.2 RU | -8.9 RU | Corrected response (RU) [21]: -0.5 RU
